Test results: US20030206891A1 (ARIAD GENE THERAPEUTICS, published 2003)

Molecular target: T1, Lex-FKBP (human, UniProt P0A7C2 1-87; P62942 2-108)
T1 construct: range 1-87;range 2-108; Translated in vitro in reticulocyte lysate; also called L87G6FKBP; p19BL87G6FKBP
Assay: gel mobility shift with in vitro translated proteins and LexCon DNA probe, rapamycin added

B1: Lex-FRAP (other, UniProt P0A7C2 1-87, looked up, not shown: small tags and cut ends)
chain: MKALTARQQEVFDLIRDHISQTGMPPTRAEIAQRLGFRSPNAAEEHLKALARKGVIEIVSGASRGIRLLQEEEEGLPLVGRVAAGEPEMWHEGLEEASRLYFGERNVKGMFEVLEPLHAMMERGPQTLKETSFNQAYGRDLMEAQEWCRKYMKSGNVKDLTQAWDLYYHVFRRISK
notes: range 1-87;range 2025-2113; Translated in vitro in reticulocyte lysate; Junction residues from the SpeI-XbaI ligation are not spelled out; also called L87FRB; p19BL87FRB
binding result: binds
